Assay results taken from patent US20130143802A1.

Assays:
[1] = molecular target: interleukin 1 receptor (on human peripheral blood leukocytes RPMI 1788) (human (cells are stated to be human)) (UniProt P14778); test: cell-based or functional assay
alpha-amylase = test: cell-based or functional assay

Chain of UniProt P14778 (P14778 18-569): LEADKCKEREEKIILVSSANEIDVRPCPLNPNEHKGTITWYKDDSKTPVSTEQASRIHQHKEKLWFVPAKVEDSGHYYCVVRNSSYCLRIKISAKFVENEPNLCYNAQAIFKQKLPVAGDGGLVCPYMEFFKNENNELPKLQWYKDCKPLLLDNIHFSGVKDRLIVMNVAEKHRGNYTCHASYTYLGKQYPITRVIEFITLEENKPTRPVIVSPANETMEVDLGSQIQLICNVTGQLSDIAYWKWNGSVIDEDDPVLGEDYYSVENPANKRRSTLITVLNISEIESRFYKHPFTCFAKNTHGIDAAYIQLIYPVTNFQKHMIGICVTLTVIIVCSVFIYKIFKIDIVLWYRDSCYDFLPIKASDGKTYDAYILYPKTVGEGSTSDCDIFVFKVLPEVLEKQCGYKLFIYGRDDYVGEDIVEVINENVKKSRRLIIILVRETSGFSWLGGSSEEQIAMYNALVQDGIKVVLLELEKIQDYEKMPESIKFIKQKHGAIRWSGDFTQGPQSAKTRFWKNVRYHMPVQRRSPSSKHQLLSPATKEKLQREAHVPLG

Substance: ELP/IL-1Ra fusion protein (ELP1 [V5A2G3-90] - … - interleukin 1 receptor antagonist) (from UniProt P18510 26-177)
- specific activity: EC50 value in µg/mL, inhibition of proliferation of RPMI 1788 cells (CellTiter Glo assay) [1]: 0.5 µg/mL

Substance: IL-1Ra/ELP fusion protein (interleukin 1 receptor antagonist - … - ELP1 [V5A2G3-90]) (from UniProt P18510 26-177)
- potency relative to ELP/IL-1Ra in the cell proliferation assay [1]: 4 fold
- specific activity: EC50 value in µg/mL, inhibition of proliferation of RPMI 1788 cells (CellTiter Glo assay) [1]: 2 µg/mL

Substance: ternary thioredoxin-ELP-tendamistat fusion (thioredoxin/90-mer ELP/tendamistat) (from UniProt P01092 31-104)
- α-amylase inhibition activity (colorimetric α-amylase inhibition assay) (alpha-amylase): 2 fold

Substance: un-fused, commercially available interleukin 1 receptor antagonist (from UniProt P18510 26-177) (ligand)
- EC50, inhibition of proliferation of RPMI 1788 cells (CellTiter Glo assay) [1]: 0.0016 µg/mL
- activity relative to IL-1Ra/ELP in the cell proliferation assay [1]: 300 fold
